Assay results taken from PMC8519567.
Read-outs that look alike come from different tables or passages of the source.

What was measured:
[1] = system: SMARCAD1 (dephosphorylated with CIP) (Homo sapiens); assay: FP
[2] = target: 7 N11 nucleosome labeled at H4 E63C with Alexa Fluor 488 (human) (UniProt P04908); assay: fluorescence polarisation
[3] = target: refolded histones H3-H4 labeled with Alexa Fluor 488 on H4 (human) (UniProt P68431); assay: fluorescence polarisation
[4] = target: histones: H3-H4 (Alexa Fluor 488–H4) and H2A-H2B (Atto647N H2B) mixed at 10 nM (human); assay: FRET or BRET
[5] = target: histones: H3-H4 (Alexa Fluor 488–H4) and H2A-H2B (Atto647N H2B) mixed at 10 nM (human); assay: FRET or BRET; remark: listed apart in the source

Substance: 7N11 nucleosome (165 bp), Alexa Fluor 488 at H4 E63C
- Kd [1]: 90 nM

Substance: 147-bp 601 DNA
- Kd [1]: 80 nM

Substance: TLH3 nucleosome (tailless H3)
- Kd ([1]; H3 N-terminal tail deleted): 330 nM

Substance: TLH4 nucleosome (tailless H4)
- Kd ([1]; H4 N-terminal tail deleted): 110 nM

Substance: dephosphorylated SMARCAD1 (from UniProt Q9H4L7 1-1026) (enzyme)
- Kd [2]: 90 nM
- Kd [3]: 4 nM
- Kd [4]: 1.3 nM
- Kd [5]: 2.1 nM
